Data as given in the supplement of paper PMC12042874.
± gives the uncertainty stated by the source.

Test: amyloid nucleation score (Sup35N fusion, yeast selection) (log enrichment); library NNK1; higher = more nucleation; inactive = no reads after selection
How it was run: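 Three technical output replicates were used for random libraries. Psi-negative yeast expressing peptides of 20 random codons fused to Sup35N were induced with 100 μM copper sulfate for 24 hours and grown 7 days at 30°C on medium lacking adenine and uracil, and input and output plasmid inserts were Illumina-sequenced, excluding sequences with under 100 input reads. The nucleation score is the DiMSum log enrichment of output over input reads, centred on the mode score of non-aggregating sequences.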

Substance	amyloid nucleation score
VELGRLIPPEHETQDLRSGW	0.258 ± 0.46
YWAIVW	-0.128 ± 0.39
LRSMCSCHVRPIYPFCGHY	0.242 ± 0.81
CQNYSHLWGEVTEWLCQRGP	3.39 ± 0.17
VTSSFWFFNDADSRQ	3.24 ± 0.1
KTASLRRVG	-0.071 ± 0.32
HRGLSLLAGVSALVWKSQMT	-0.4 ± 1.1
NITFEVINQRCD	3.38 ± 0.12
YAFLSEYFSAK	-0.054 ± 0.24
SWRLMIRYVDTPNSWNFSTM	-0.183 ± 0.67
AYNDSAVGRAGGLFVVGLFV	-0.51 ± 0.58
PQALGSTHLQTRRDQHVIF	-0.046 ± 0.53
ALIYPILILYGV	1.52 ± 0.85
VGISCPYYLGRGIMVEARSD	-0.006 ± 0.62
LMPARLNYERTALSMPKWSE	-0.38 ± 0.63
WHRRLGNMFKIASRTELRMG	-0.672 ± 1.1
VQFGQIIEWVFHMLVSTTTI	-0.022 ± 0.36
YLVMRMMVLRMAKPKIVGRD	5.524 ± 0.051
LMQLHCLARSLYPFPWSGPT	1.96 ± 0.42
VNLRKEPDNRGLGLDFRLN	0.001 ± 0.78
VMLVVMGLFELFWLSNVV	inactive
VTNVSLDCGALCSCELCKKS	7.155 ± 0.063
LRSKCECNTRGSCAWWCSDA	1.1 ± 0.9
CMLREPKRKYPVKIMCSLLV	inactive
TVRGCRCLAFPWFNG	0.5 ± 0.48

Substance	amyloid nucleation score
IFWTFRGITMPSC	0.702 ± 0.55
LYFMSISTMAIRSCGVGLHQ	0.235 ± 0.37
SIHVGVSRG	0.806 ± 0.35
CTHRSFFSSNAIAVRLDLSW	inactive
YTYVSMPGR	-0.358 ± 0.34
CNMHATETLNIRCVNSDAC	0.046 ± 1.6
WHEHSYLENSIYITRIKINV	3.18 ± 0.15
LPKKDNHSSTNA	-1.77 ± 2.4
NKWLRCARGTVHWYAAIVGH	-0.942 ± 1.1
KWSPIAGSTMIMEMCH	-1.08 ± 0.83
WCNTMFWHS	1.09 ± 0.22
IGIPVLGMNINYCFLR	0.931 ± 0.29
CCERGWS	0.156 ± 0.72
KVSEDMYSHFQQSFSQAIIV	inactive
VAYSVI	1.02 ± 0.66
DILVYRTLSPCVLSCSYFSG	-1.25 ± 0.77
CMWSRRWGTLLASILVLSYG	0.081 ± 0.34
FSLCDSKSKWLLYCSGSFNL	2.69 ± 0.14
NTSELRGNMSRHCKNSGGVI	-0.058 ± 0.62
KTSCQSFVGR	-0.403 ± 0.54
SSPSMSINVYRLNKS	inactive
YYLSCNDSKGYSMRQFMYDV	-0.139 ± 0.81
QYVIQAYACTWCRCGKLQSG	7.693 ± 0.065
YINLSYPIFTNSDLFGPCWH	3.45 ± 0.12
ANLVWDYFQVSTSPMCPLVQ	-2.07 ± 2.4

Substance	amyloid nucleation score
LFLLSTSESCFQCATPANDN	-0.222 ± 0.59
RRATLSHAPGGPMGLEWSRW	0.444 ± 1.2
ERYVLAPYQQTRRGNLQFRY	0.615 ± 0.63
FLLMVWDIYECVGNTLKRCA	0.027 ± 0.42
TGYGSDNCI	inactive
LLVSVFTRYFPGNVRVTWGT	-0.21 ± 0.32
VYAYTQLKQGRRHEQGTWS	inactive
LWPEPVSRSIHSRSH	0.976 ± 0.55
GSSRKSIVNIRILPSFALAE	-0.272 ± 0.52
SFDKARRARGRSLAWML	0.072 ± 0.54
VSCCSNLVY	0.144 ± 0.26
VKVGVCGSVGWLHTGVQSNG	0.804 ± 0.3
CTLKWLTF	1.34 ± 0.43
SYPCTVHTKGWLVFTCGVCI	0.32 ± 0.73
DAIPFMFPNLMVMK	0.155 ± 0.55
YVPPSMMLNGGDPEYSVGLK	0.082 ± 0.89
QSGAVTSSVRPQRVEVVRVV	-0.904 ± 0.88
KFRSEGWIGCESVIKW	4.72 ± 0.078
EVTDVRLS	0.862 ± 0.62
RLASRCLLALGMEWLIPMER	2.6 ± 0.11
LCYAGVVLQYVILDHKRSCD	6.233 ± 0.059
VNRALAFNCWSALILGNAVV	-0.608 ± 0.31
SNVICRGR	1.41 ± 0.31
DIKGRLLWGDKARLNEVPLR	1.04 ± 0.57
MSRRWV	-1.01 ± 0.79

Substance	amyloid nucleation score
APDRNDHDKLCCLCDNWSAL	0.056 ± 1.4
MGVLKWLATRLDWFKKIMCR	2.3 ± 0.13
NQFMHGTETYFEDINALVWG	1.43 ± 0.66
NEFTFSYKYGRHSGRSLKRR	2.32 ± 0.28
PPGIRAYM	-0.036 ± 0.35
FMYAQMFPTAVQDYVK	inactive
ERLYLSRYSMVIFVGLMCKS	-0.145 ± 0.61
VLTNESRGYTIRLGSYSRFV	2.4 ± 0.49
KYKESMYLRLCFRYVWTNYS	0.441 ± 0.61
SVRYWAYRFVHF	inactive
YIPTCAGDWLQFNYYNLMCW	0.149 ± 0.38
SLMCSPNGDESRQWNPRARQ	inactive
LPVLSGWTNTAA	-0.73 ± 0.59
CHNVVGSVKRIRSKFMKCFV	inactive
EVSLVVYTYVF	0.697 ± 0.69
VHCHMEITSWLGRRS	2.8 ± 0.12
FLILLGLVEDGTLYAVRTVG	-0.849 ± 0.8
SVCKCKLNERIEKWNYRSIR	0.227 ± 0.43
VSSGHLA	0.032 ± 0.42
NRALGMRGVIGPSVWYVVP	0.534 ± 0.26
YMVHMK	0.121 ± 0.76
FGPRSDAVLVLYFSYVSPLD	-1.79 ± 2.4
VVAFYL	1.91 ± 0.37
ICFRIIVAIVQRV	1.14 ± 0.38
RPEISTPFMYGYFVSGVGVA	inactive

Substance	amyloid nucleation score
FKSYCVGLHDYGP	0.242 ± 0.99
QSTNLAFLRICECSE	3.8 ± 0.071
CFVVHMSKEFYGRYFVRRIN	inactive
HMITSLRWSSLRSWTQVWLR	inactive
TLCCVWSNSFLRVTHDVYKA	8.518 ± 0.057
RRICSNCLFSGGIWNISGWV	0.509 ± 1.1
LSWVQSLKACNI	1.45 ± 0.4
TWQSLHGTVTRPRAIVFRLC	0.027 ± 0.66
VNVTCMFWD	4.05 ± 0.058
SAVVTRMGGGLKLRTWHEGN	0.53 ± 0.55
CFFMEFYVPNSIIIYVRTPV	-1.89 ± 0.96
DGRFLCFHIGSLMSGWDGRQ	-0.783 ± 0.75
VYLACVSSPCLKS	-0.2 ± 0.79
YLTQLV	0.528 ± 0.38
GVDGFWRMVSKLPHGRLDQH	-0.123 ± 0.38
TCFSSILKDMVWRNRRRWGY	0.216 ± 0.84
SRYSLTCRVLTWLPDNLVRR	0.07 ± 0.42
HCCFTGRKGYSRFAVLSCST	1.11 ± 0.48
SLFLAGIMDIRGWYVVASTP	-0.34 ± 0.54
CLVERATITHFASCVEAYFY	-0.224 ± 1.4
MACVVRVLGVMVHLKMLVGL	-1.11 ± 1
SEKRR	0.075 ± 0.26
GLRALEMSLSES	inactive
ARGTGGSKAAPNYLVYTGCR	0.684 ± 0.48
HLLRRHYNCLSHLGWCNGLF	-0.024 ± 0.29

Substance	amyloid nucleation score
TLCCLT	inactive
VSMHYYAGTYSLNNSLV	-0.819 ± 1.1
TIQPRRWYVYSKQFLWNLCC	1.35 ± 0.14
DIVPSTPELFI	-0.505 ± 0.59
AQTPRLLKVG	-1.01 ± 1.8
RSVMCGWDHPRDRVGAPEWL	0.439 ± 0.71
PLPPLVMLPQ	-0.481 ± 0.8
SDQSPFLIGVPWFVIYNRGG	1.69 ± 0.11
IRGTFRVSYGNGKCNSVMNY	0.201 ± 0.42
FLVQVAWFLPAGGYGDNFCC	0.049 ± 0.39
GWIVAMRKR	0.236 ± 1.6
DYGIWELSINMSVKYLCWLP	1.27 ± 0.13
MFARLNF	3.98 ± 0.062
MRKTFDAVLNAFFCKALFCY	0.759 ± 0.39
VTRFSAGTITVLTRDWRANC	-0.486 ± 1.6
FNYHRRPLNYISNRQYGGLS	inactive
VYACLSHSVRV	1.05 ± 0.97
VDLTLPASAVGNELCAREVG	0.155 ± 0.34
FACMEGSLVM	inactive
TWMNASCKSCTYAARFSDQK	1.51 ± 0.56
TKLVLWLVA	-0.429 ± 0.71
KSLENDHIVSVCSFLISRTR	3.97 ± 0.081
ESSIVVGCRGSGWTQDAASQ	-0.465 ± 0.29
NLLTMDIERTGECIDFWVD	0.008 ± 0.38
PCYRLWLVSAWAVTQEFTSW	1.35 ± 0.14

Substance	amyloid nucleation score
LVLQRDIGSACVDCHGVGKA	1.17 ± 0.52
HFLTDMNFKRARDSDLSSVW	0.489 ± 0.29
LWNCKIVVWSFIGSVCTTGK	2.29 ± 0.19
TVSIPKPILFCEFYFRYADM	-1.67 ± 0.73
FKFMSLGMSWAT	1.61 ± 0.33
LILKISMMGK	inactive
IVMCEAYFK	inactive
SWIEKDHFQVGARYRMSS	-0.376 ± 0.6
RGYVCTVVLSNILLGITTEG	3.79 ± 0.097
NSWDISRSMNVLGNRVNRFP	-0.765 ± 0.37
ICYVNVL	-1.18 ± 1.7
GITLSIAFLKAYLCRSKGGS	2.62 ± 0.14
SVMGVSWFLFLDYGDSINFR	0.521 ± 0.36
YKYFCGYKLSVEDLLLSVYQ	0.188 ± 0.27
LRGIDRTALGSGSERYLCLL	-0.253 ± 0.59
RAGIFKEYCSFATVKYVKDN	-1.04 ± 0.39
ISNGIYISKEGFHEWSNRH	4.18 ± 0.064
RSGVVIVVLSVYGSSQRARG	-0.108 ± 0.4
HWLFWCQR	inactive
TRHCMRLWECKHEMRTAN	-0.647 ± 1.1
